The values below come from publication PMC3947653 (Peptides, 2013).

Data set [1] is described as follows: Aging of glucagon in glycine buffer at 37° C, analysed by LCMS. The format is physicochemical.
Another data set concerns animals. Conditions: cited from earlier work.
For data set [2] the following is noted: cited from earlier work.

Regarding glucagon, the “width of main LCMS peak, glucagon aged at pH 10” value in data set [1] (1 mg/ml in glycine buffer pH 10, 7 days at 37° C, reverse-phase LCMS) is recorded as 3 min. The “deamidation events after aging, pH 10 vs pH 9” value in data set [1] (aged 7 days at 37° C, least-squares fitting of isotopic distribution of the m/z spectrum) was “more deamidation events than pH 9”. The “width of main LCMS peak, fresh glucagon” value in data set [1] (unaged glucagon, reverse-phase LCMS) is 1 min. In addition, the “bioactivity of fibrillated glucagon given to animals” value in the data set with animals was “retains much of its bioactivity”. Also, the “aggregation at alkaline pH vs acid pH” value in data set [2] is “much less prone to aggregation than glucagon prepared at acid pH”.
